Earlier results, collected in US8541373B2, “BChE albumin fusions for the treatment of cocaine abuse” (priority 2009, dated 2013).
Where a chain is given by its changes, count along the chain named. Names may count otherwise.

B1: A328W/Y332A (protein, UniProt P06276 29-602, looked up, variant A328W Y332A)
Cholinesterase: EDDIIIATKNGKVRGMNLTVFGGTVTAFLGIPYAQPPLGRLRFKKPQSLTKWSDIWNATKYANSCCQNIDQSFPGFHGSEMWNPNTDLSEDCLYLNVWIPAPKPKNATVLIWIYGGGFQTGTSSLHVYDGKFLARVERVIVVSMNYRVGALGFLALPGNPEAPGNMGLFDQQLALQWVQKNIAAFGGNPKSVTLFGESAGAASVSLHLLSPGSHSLFTRAILQSGSFNAPWAVTSLYEARNRTLNLAKLTGCSRENETEIIKCLRNKDPQEILLNEAFVVPYGTPLSVNFGPTVDGDFLTDMPDILLELGQFKKTQILVGVNKDEGTWFLVAGAPGFSKDNNSIITRKEFQEGLKIFFPGVSEFGKESILFHYTDWVDDQRPENYREALGDVVGDYNFICPALEFTKKFSEWGNNAFFYYFEHRSSKLPWPEWMGVMHGYEIEFVFGLPLERRDNYTKAEEILSRSIVKRWANFAKYGNPNETQNNSTSWPVFKSTEQKYLTLNTESTRIMTKLRAQQCRFWTSFFPKVLEMTGNIDEAEWEWKAGFHRWNNYMMDWKNQFNDYTSKKESCVGL
B2: A227S/S315G/A356W/Y360G (protein, UniProt P06276 29-602, looked up, variant A227S S315G A356W Y360G)
Cholinesterase: B1 Cholinesterase with A199S, S287G, A332G

Conditions: cited from earlier work

| Molecule | kcat relative to wild-type BChE (cocaine hydrolase activity) [fold] | Catalytic efficiency relative to wild-type BChE (hydrolysis of cocaine) [fold] |
| --- | --- | --- |
| B1 | 40 |  |
| B2 |  | 500 |
